Substrate: CCCC(=O)Oc1ccc([N+](=O)[O-])cc1
Assay: initial rates of p-nitrophenyl butyrate hydrolysis
Assay type: biochemical, Rhizopus arrhizus
Conditions: 30 °C, 25 mM phosphate buffer pH 8, substrate 10-100 mM

B1: ROL (Rhizopus oryzae lipase; wild type WROL) (Rhizopus arrhizus) (protein)
chain: SDGGKVAAATTAQIQEFTKYAGIAATAYCRSVVPGNKWDCVQCQKWVPDGKIITTFTSLLSDTNGYVLRSDKQKTIYLVFRGTNSFRSAITDIVFNFSDYKPVKGAKVHAGFLSSYEQVVNDYFPVIQEQLTANPTYKVIVTGHSLGGAQALLAGMDLYQREPRLSPKNLSIFTVGGPRVGNPTFAYYVESTGIPFQRTVHKRDIVPHVPPQSFGFLHPGVESWIKSGTSNVQICTSEIETKDCSNSIVPFTSLLDHLSYFDINEGSCL
  Km: 5.56 mM
  Vmax: 2.34 µmol/min/mg
  kcat: 1.25 s⁻¹
  kcat/Km: 220 M⁻¹ s⁻¹

Source: publication PMC9091645
